Blank lines part the entries; values can stand above or below the molecule they belong to.
Tests used:
[1] = molecular target: T1, KPREcoli (ketopantoate reductase from E. coli) (Escherichia coli, UniProt P0A9J4); assay: NADPH oxidation at […] nm, continuous; format: biochemical; settings: NADPH 0.16 mM; 50 mM Tris-HCl pH 8.0; 30 °C; substrate inhibition
T1 construct: gene panE; recombinant wild type; tags and purification only in the supplement
T1 sequence (P0A9J4 1-303): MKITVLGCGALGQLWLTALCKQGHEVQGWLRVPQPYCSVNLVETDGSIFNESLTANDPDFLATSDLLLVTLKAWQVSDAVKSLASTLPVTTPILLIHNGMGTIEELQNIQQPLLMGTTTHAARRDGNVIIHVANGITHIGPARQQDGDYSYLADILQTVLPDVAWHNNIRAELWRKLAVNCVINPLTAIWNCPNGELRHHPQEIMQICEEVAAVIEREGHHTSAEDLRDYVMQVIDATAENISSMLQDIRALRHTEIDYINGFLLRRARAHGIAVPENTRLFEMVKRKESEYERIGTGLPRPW

purified protein [2] = substrate: O=C(O)C(=O)C[C@@H](O)CO; assay: purified protein; format: biochemical, Pseudomonas syringae group genomosp. 3; settings: NADPH 0.16 mM, 50 mM Tris-HCl pH 8.0, 30 °C
purified protein [3] = substrate: O=C(O)C(=O)CCO; assay: purified protein; format: biochemical, Pseudomonas syringae group genomosp. 3; settings: NADPH 0.16 mM, 50 mM Tris-HCl pH 8.0, 30 °C
purified protein [4] = substrate: C[C@@H](CO)C(=O)C(=O)O; assay: purified protein; format: biochemical, Pseudomonas syringae group genomosp. 3; settings: NADPH 0.16 mM, 50 mM Tris-HCl pH 8.0, 30 °C
purified protein [5] = substrate: C[C@H](CO)C(=O)C(=O)O; assay: purified protein; format: biochemical, Pseudomonas syringae group genomosp. 3; settings: NADPH 0.16 mM, 50 mM Tris-HCl pH 8.0, 30 °C
purified protein [6] = substrate: CC[C@@H](CO)C(=O)C(=O)O; assay: purified protein; format: biochemical, Pseudomonas syringae group genomosp. 3; settings: NADPH 0.16 mM, 50 mM Tris-HCl pH 8.0, 30 °C
purified protein [7] = substrate: COCC[C@H](CO)C(=O)C(=O)O; assay: purified protein; format: biochemical, Escherichia coli; settings: NADPH 0.16 mM, 50 mM Tris-HCl pH 8.0, 30 °C
purified protein [8] = substrate: CC[C@H](CO)C(=O)C(=O)O; assay: purified protein; format: biochemical, Escherichia coli; settings: NADPH 0.16 mM, 50 mM Tris-HCl pH 8.0, 30 °C
purified protein [9] = substrate: CC(C)[C@@H](CO)C(=O)C(=O)O; assay: purified protein; format: biochemical, Escherichia coli; settings: NADPH 0.16 mM, 50 mM Tris-HCl pH 8.0, 30 °C
purified protein [10] = substrate: O=C(O)C(=O)C1(CO)CCC1; assay: purified protein; format: biochemical, Escherichia coli; settings: NADPH 0.16 mM, 50 mM Tris-HCl pH 8.0, 30 °C
purified protein [11] = substrate: O=C(O)C(=O)CCO; assay: purified protein; format: biochemical, Escherichia coli; settings: NADPH 0.16 mM, 50 mM Tris-HCl pH 8.0, 30 °C
purified protein [12] = substrate: CC(C)(CO)C(=O)C(=O)O; assay: purified protein; format: biochemical, Escherichia coli; settings: NADPH 0.16 mM, 50 mM Tris-HCl pH 8.0, 30 °C
purified protein [13] = substrate: C[C@@H](CO)C(=O)C(=O)O; assay: purified protein; format: biochemical, Escherichia coli; settings: NADPH 0.16 mM, 50 mM Tris-HCl pH 8.0, 30 °C
purified protein [14] = substrate: O=C(O)C(=O)C1(CO)CCCC1; assay: purified protein; format: biochemical, Escherichia coli; settings: NADPH 0.16 mM, 50 mM Tris-HCl pH 8.0, 30 °C
purified protein [15] = substrate: C[C@H](CO)C(=O)C(=O)O; assay: purified protein; format: biochemical, Escherichia coli; settings: NADPH 0.16 mM, 50 mM Tris-HCl pH 8.0, 30 °C
purified protein [16] = substrate: C=CC[C@H](CO)C(=O)C(=O)O; assay: purified protein; format: biochemical, Escherichia coli; settings: NADPH 0.16 mM, 50 mM Tris-HCl pH 8.0, 30 °C
purified protein [17] = substrate: CC[C@@H](CO)C(=O)C(=O)O; assay: purified protein; format: biochemical, Escherichia coli; settings: NADPH 0.16 mM, 50 mM Tris-HCl pH 8.0, 30 °C
purified protein [18] = substrate: C=CC[C@@H](CO)C(=O)C(=O)O; assay: purified protein; format: biochemical, Escherichia coli; settings: NADPH 0.16 mM, 50 mM Tris-HCl pH 8.0, 30 °C

B1: DpkAPsyrin (Δ1-piperidine-2-carboxylate/Δ1-pyrroline-2-carboxylate reductase) (Pseudomonas syringae pv. tomato) (protein)
chain: MSASHADQPTQTVSYPQLIDLLRRIFVVHGTSPEVADVLAENCASAQRDGSHSHGIFRIPGYLSSLASGWVDGKAVPVVEDVGAAFVRVDACNGFAQPALAAARSLLIDKARSAGVAILAIRGSHHFAALWPDVEPFAEQGLVALSMVNSMTCVVPHGARQPLFGTNPIAFGAPRAGGEPIVFDLATSAIAHGDVQIAAREGRLLPAGMGVDRDGLPTQEPRAILDGGALLPFGGHKGSALSMMVELLAAGLTGGNFSFEFDWSKHPGAQTPWTGQLLIVIDPDKGAGQHFAQRSEELVRQLHGVGQERLPGDRRYLERARSMAHGIVIAQADLERLQELAGH
notes: recombinant wild type; tags and purification only in the supplement
Km (purified protein [2]): 11 ± 1 mM
kcat (purified protein [2]): 0.05 ± 0.00033 s⁻¹
kcat/Km (purified protein [2]): 4.67 M⁻¹ s⁻¹
Km (purified protein [3]): 33 ± 7 mM
kcat (purified protein [3]): 0.0283 ± 0.0033 s⁻¹
kcat/Km (purified protein [3]): 0.867 M⁻¹ s⁻¹
Km (purified protein [4]): 19 ± 4 mM
kcat (purified protein [4]): 0.0183 ± 0.0017 s⁻¹
kcat/Km (purified protein [4]): 0.967 M⁻¹ s⁻¹
Km (purified protein [5]): 7.5 ± 1.9 mM
kcat (purified protein [5]): 4e-05 ± 3.3e-06 s⁻¹
Km (purified protein [6]): 14 ± 2 mM
kcat (purified protein [6]): 0.00383 ± 0.00017 s⁻¹
kcat/Km (purified protein [6]): 0.267 M⁻¹ s⁻¹

B2: KPREcoli (ketopantoate reductase from E. coli) (Escherichia coli K-12) (protein)
chain: MKITVLGCGALGQLWLTALCKQGHEVQGWLRVPQPYCSVNLVETDGSIFNESLTANDPDFLATSDLLLVTLKAWQVSDAVKSLASTLPVTTPILLIHNGMGTIEELQNIQQPLLMGTTTHAARRDGNVIIHVANGITHIGPARQQDGDYSYLADILQTVLPDVAWHNNIRAELWRKLAVNCVINPLTAIWNCPNGELRHHPQEIMQICEEVAAVIEREGHHTSAEDLRDYVMQVIDATAENISSMLQDIRALRHTEIDYINGFLLRRARAHGIAVPENTRLFEMVKRKESEYERIGTGLPRPW
notes: as for B1
Km (purified protein [7]): 18 ± 3 mM
kcat (purified protein [7]): 0.0983 ± 0.0083 s⁻¹
kcat/Km (purified protein [7]): 5.67 M⁻¹ s⁻¹
Km (purified protein [8]): 7 ± 1 mM
kcat (purified protein [8]): 11.7 ± 0.567 s⁻¹
kcat/Km (purified protein [8]): 1770 M⁻¹ s⁻¹
Km (purified protein [9]): 13 ± 2 mM
kcat (purified protein [9]): 17.02 ± 1.15 s⁻¹
kcat/Km (purified protein [9]): 1280 M⁻¹ s⁻¹
Km (purified protein [10]): 1.5 ± 0.5 mM
kcat (purified protein [10]): 113.2 ± 17.03 s⁻¹
kcat/Km (purified protein [10]): 73800 M⁻¹ s⁻¹
Km (purified protein [11]): 4.9 ± 1.2 mM
kcat (purified protein [11]): 0.118 ± 0.0083 s⁻¹
kcat/Km (purified protein [11]): 25 M⁻¹ s⁻¹
Km (purified protein [12]): 0.4 ± 0.2 mM
kcat (purified protein [12]): 74.28 ± 13.6 s⁻¹
kcat/Km (purified protein [12]): 179000 ± 76500 M⁻¹ s⁻¹
Km (purified protein [13]): 12.9 ± 1.4 mM
kcat (purified protein [13]): 5.8 ± 0.25 s⁻¹
kcat/Km (purified protein [13]): 450 M⁻¹ s⁻¹
Km (purified protein [14]): 0.2 ± 0.1 mM
kcat (purified protein [14]): 19.43 ± 1.12 s⁻¹
kcat/Km (purified protein [14]): 92800 M⁻¹ s⁻¹
Km (purified protein [15]): 4.8 ± 0.4 mM
kcat (purified protein [15]): 89.17 ± 2.3 s⁻¹
kcat/Km (purified protein [15]): 18500 M⁻¹ s⁻¹
Km (purified protein [16]): 9.5 ± 1.5 mM
kcat (purified protein [16]): 1.5 ± 0.083 s⁻¹
kcat/Km (purified protein [16]): 157 M⁻¹ s⁻¹
Km (purified protein [17]): 3.0 ± 0.5 mM
kcat (purified protein [17]): 15.4 ± 0.617 s⁻¹
kcat/Km (purified protein [17]): 5230 M⁻¹ s⁻¹
Km (purified protein [18]): 9.5 ± 1.7 mM
kcat (purified protein [18]): 1.48 ± 0.1 s⁻¹
kcat/Km (purified protein [18]): 157 M⁻¹ s⁻¹

The next lines start with the values.

KPREcoli ^b / ksi^app [1]: 6.6 ± 1.5 mM
Molecule: O=C(O)C(=O)C1(CO)CCC1 [3k]

KPREcoli ^b / ksi^app [1]: 3.9 ± 1.3 mM
Molecule: CC(C)(CO)C(=O)C(=O)O [3j, ketopantoate]

KPREcoli ^b / ksi^app [1]: 28 ± 4 mM
Molecule: O=C(O)C(=O)C1(CO)CCCC1 [3l]
